Biological target: nucleosome core particle (recombinant Xenopus laevis histone octamer on 147 bp 601 DNA) (Xenopus laevis)
Assay: native gel or EMSA; HMGN1 variants incubated with AlexaFluor488-labelled nucleosome cores (50 nM) at 0.5:1, 1:1 and 2:1 HMGN1 per nucleosome; 10 mM Tris pH 7.5, 25 mM NaCl, 25 mM KCl, 0.2 mM DTT, 4% sucrose, on ice 20-30 min; 5% native PAGE, 0.5x TBE, 4 °C

Substance: full-length recombinant HMGN1 (HMGN1_1–99, unmodified) (natural protein)
- stoichiometry N (HMGN1 molecules per nucleosome): 2

Substance: semi-synthetic unmodified HMGN1 (natural protein)
- stoichiometry N (HMGN1 molecules per nucleosome): 2
